The record followed here is the RNAGym collection of RNA variant scans (doi:10.1093/nar/gkz1192).

First the molecules themselves.
B1: CPEB3 Ribozyme (parent)
chain: UAACAGGGGGCCACAGCAGAAGCGUUCACGUCGCAGCCCCUGUCAGAUUCUGGUGAAUCUGCGAAUUCUGCUGUAUAUCUC

The variants in this data set derive from B1. Nature of the data set: self-cleavage, relative activity (ratio to wild type); higher = more cleavage; in vitro, sequencing. In a few lines:
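Libraries of CPEB3 self-cleaving ribozyme mutants came from rounds of error-prone PCR and carried barcodes, which DNA sequencing matched to variants. In vitro transcription used T7 RNA polymerase at 37°C for 5 hours, with a further 15 min in DNase I before EDTA stopped the reaction; the ribozymes cleaved during both steps. The RNA was reverse transcribed with template switching and sequenced on Illumina. Relative activity is the cleaved/total read fraction of a variant divided by that of the unmutated ribozyme, averaged over three batches with at least 5 reads.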
Take C11U U41C: the self-cleavage was found to be 0.51. In the case of C12A U69C, the self-cleavage was 0.72. The result for C12A U69A reads 0.7; that for C11U C12U, 0.56. For C11G A15G, the self-cleavage amounted to 0.58.

Take C11G A15C: the self-cleavage came out at 0.62.

Regarding C11G A15U, the self-cleavage was 0.39. Regarding C12G A45C, the self-cleavage turned out to be 0.12. The result for C12G C38A reads 0.36; that for C12G U48G, 0.35; that for C12G A15G, 0.1.

Consider C11U U48C, for which the self-cleavage came to 0.31. As for C11U U48A, the self-cleavage is 0.24. As for C11A U69C, the figure is 0.17. Take C11G A77G: the self-cleavage was 0.64. The result for C11A G33A reads 0.07; that for C11U A77U, 0.47; that for C11U A77G, 0.41. Turning to C12A U31C, the self-cleavage is 1.14. The result for C12A U31A reads 0.65; that for C11G A18U, 0.39. As for C11G A18G, the figure is 0.54; as for C11U C68A, 0.11.

For the variant C11G U31C, the self-cleavage was 0.22. The result for C11G U31A reads 0.33; that for C11G U31G, 0.27; that for C11U C23U, 0.24. C11A C44A: the self-cleavage is 0.13. With C12A U80C, the self-cleavage is 1.23. As for C11U C40U, the figure is 0.27; as for C11G C32U, 0.16. As for C11G C32A, the self-cleavage is 0.31. As to C12A C62A, the self-cleavage was found to be 0.71.

Consider C12A C62G, for which the self-cleavage came out at 0.24. As for C11G U74C, the self-cleavage was determined as 0.91. The result for C11G U74G reads 0.84. As for C11G U74A, the figure is 0.96. The result for C11G C39G reads 0.11; that for C11G C39A, 0.38.

In the case of C11U A18U, the self-cleavage came to 0.24.

Take C11U A18G: the self-cleavage amounted to 0.31. For C11U A18C, the self-cleavage is 0.39.

In the case of C11A C62U, the self-cleavage stood at 0. Consider C11U G19U, for which the self-cleavage is 0.07. For the variant C11G G46U, the self-cleavage came to 0.1. As for C12A A57G, the figure is 1.06; as for C12G U66C, 0.24. On to C11G A47G, for which the self-cleavage is 0.61. For the variant C11G G30U, the self-cleavage came out at 0.09. As for C12A U41C, the figure is 0.99; as for C12A U41G, 0.36; as for C12G U31C, 0.92. The result for C12G U76C reads 0.66. Take C12G C27A: the self-cleavage came to 0.09. Take C12G C27U: the self-cleavage was determined as 0.18. As for C12A U72C, the figure is 1.19; as for C12A U60C, 0.3; as for C11G C14U, 0.93. As for C12A A47G, the self-cleavage is 1.17.

C12G A28U: the self-cleavage was 0.26. C12A A20G: the self-cleavage is 1.17. As for C12A A20U, the figure is 0.32; as for C11U U76C, 0.43. The result for C11U A56U reads 0.33. As for C11U A56G, the figure is 0.32; as for C12G G30A, 0.29. Take C11G G70U: the self-cleavage was 0.23. As for C11G G70A, the figure is 0.26; as for C11A U25C, 0.25; as for C11A U25A, 0.45. C11G U41C: the self-cleavage came out at 0.67. C11G U41A: the self-cleavage was 0.25. Consider C11U G24A, for which the self-cleavage was found to be 0.22. The result for C12A A64G reads 1.21; that for C12A A64U, 0.56. As for C11U U78C, the figure is 0.33.

As for C11U U78A, the self-cleavage is 0.53.

C11U U80A: the self-cleavage was 0.31. As for C11U U80C, the self-cleavage came to 0.45. Regarding C12G A64U, the self-cleavage came out at 0.13. As for C12G C17G, the figure is 0.27. As for C11U U67A, the figure is 0.36; as for C11U U67C, 0.18; as for C11U U67G, 0.18. As for C11U U25C, the figure is 0.22; as for C11U U25A, 0.38.

For C11U U66C, the self-cleavage stood at 0.2. The result for C12A G30U reads 0.26. As for C11U A20G, the figure is 0.43; as for C11U A20U, 0.28; as for C11G U60A, 0.12.

As for C11G U60C, the self-cleavage worked out at 0.29. The result for C11G U60G reads 0.21; that for C11G U76C, 0.61; that for C11G U76A, 0.49.

For the variant C11U A45U, the self-cleavage stood at 0.27. The result for C11U A45G reads 0.2; that for C12A U78C, 1.04; that for C12A U78A, 1.21. The result for C11G A28G reads 0.24. The result for C11U C50U reads 0.4; that for C11U U51A, 0.42; that for C11U U51C, 0.44. Turning to C11U U51G, the self-cleavage turned out to be 0.35. The result for C11G C17U reads 0.19; that for C11A G73A, 1.07. The result for C11A G73C reads 0.87; that for C11U G53U, 0.43. For the variant C11U G53C, the self-cleavage is 0.4. Turning to C11G A56U, the self-cleavage worked out at 0.28. Consider C11G A56C, for which the self-cleavage is 0.38. In the case of C11G U58A, the self-cleavage came out at 0.39. In the case of C11U G42A, the self-cleavage was found to be 0. As for C12A A18U, the figure is 0.48; as for C12A U54A, 1.1; as for C12A U54C, 1.12. As for C12A U48G, the figure is 0.2; as for C11G U49G, 0.31; as for C11G U49A, 0.6. The result for C11G G42U reads 0.37; that for C12A A56U, 0.81.

Consider C12A A56G, for which the self-cleavage turned out to be 0.87.

Take C12A G46U: the self-cleavage is 0.38. The result for C12A U49C reads 0.63. The result for C11A C17U reads 0.09; that for C12A C79A, 1.28; that for C11U C32A, 0.2. For the variant C11G C34G, the self-cleavage was determined as 0.38. As to C11A U31A, the self-cleavage is 0.3. As for C11A U31C, the figure is 0.23; as for C11G G73C, 0.97. As for C11A G46C, the figure is 0.13; as for C11U U72A, 0.42; as for C11U U72G, 0.37. As for C11U U72C, the figure is 0.64; as for C11G U66C, 0.21. Take C11G U66A: the self-cleavage was 0.49. C11U A35U: the self-cleavage was found to be 0.33.

Consider C11U A35G, for which the self-cleavage came to 1.27. The result for C12A U25C reads 0.42; that for C11U U60C, 0.14. In the case of C11U C38A, the self-cleavage was found to be 0.06. Take C11G A35G: the self-cleavage amounted to 0.56. As for C11G A35U, the figure is 0.18; as for C11G A35C, 0.33. With C12U A13G, the self-cleavage is 0.74. The result for C12U A13C reads 1.16. The result for C12U A13U reads 1.15; that for C11A G24A, 0.09.

Take C11U U43A: the self-cleavage is 0.68. The result for C11U U43C reads 0.35; that for C12A U51A, 1.06; that for C11U U26C, 0.31. On to C11U U26A, for which the self-cleavage amounted to 0.36. As for C11A U74C, the figure is 0.6; as for C11G G63U, 0.66. As to C11U C62U, the self-cleavage was 0.11. On to C11G A64U, for which the self-cleavage stood at 0.16. C11G A64G: the self-cleavage came out at 0.4. Take C11A U49G: the self-cleavage is 0.3. As for C11A U49A, the figure is 0.11; as for C12A U26A, 1.08; as for C12G U69C, 0.11. Take C12G U69A: the self-cleavage is 0.3. The result for C12G G52A reads 0.49. As for C12A U67C, the figure is 0.33; as for C12A U67A, 0.69.
